The series in a line: self-splicing fitness, log relative to wild type (ln ratio); higher = more splicing; Tetrahymena group I intron in knt gene, E. coli kanamycin selection, DiMSum; sequences stand for … in CUCUCU…GGAGGGAAAAGUUAUCAGGCAUGCACCUGGUAGCUAGUCUUUAAACCAAUAGAUUGCAUCGGUUUAAAAGGCAAGACCGUCAAAUUGCGGGAAAGGGGUCAACAGCCGUUCAGUACCAAGUCUCAGGGGAAACUUUGAGAUGGCCUUGCAAAGGGUAUGGUAAUAAGCUGACGGACAUGGUCCUAACCACGCAGCCAAGUCCUAAGUCAACAGAUCUUCUGUUGAUAUGGAUGCAGUUCACAGACUAAAUGUCGGUCGGGGAAGAUGUAUUCUUCUCAUAAGAUAUAGUCGGACCUCUCCUUAAUGGGAGCUAGCGGAUGAAGUGAUGCAACACUGGAGCCGCUGGGAACUAAUUUGUAUGCGAAAGUAUAUUGAUUAGUUUUGGAGUACUCGUGGUCG
In short, it runs like this: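 Six replicate transformations of E. coli BL21(DE3) with a pET-22b(+) library were grown overnight at 37°C or 30°C. The library randomised all eight P1ex-region intron nucleotides, the intron lying in the knt kanamycin-resistance gene, and plates were LB agar with or without 25 μg/mL kanamycin plus 100 μg/mL carbenicillin, 50 μM IPTG and 0.2% rhamnose. Pooled colonies were amplicon-sequenced on an Illumina HiSeq 2500, and fitness is the DiMSum error-weighted combination of wild-type-normalised replicate fold changes, kanamycin versus none.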

± gives the uncertainty stated by the source.

Regarding GGUAAGCAAUAUUACGGCAA, the “self-splicing fitness (ln)” value is, setting by setting: (30 °C) -0.143 ± 0.12; (37 °C) -0.18 ± 0.15.
In the same order, the values of UAUCAGCAAUAUUACGGAUA are -2.17 ± 0.24 and -1.85 ± 0.31.
Consider AUGGAGCAAUAUUACGACAU, for which the “self-splicing fitness (ln)” value by setting is: (30 °C) -1.36 ± 0.017; (37 °C) -0.784 ± 0.035.
UGUGAGCAAUAUUACGUUGU: the “self-splicing fitness (ln)” value (30 °C) was -3.15 ± 0.25 and the “self-splicing fitness (ln)” value (37 °C) was -3.13 ± 0.47.
In the case of UUAAAGCAAUAUUACGACAC, the “self-splicing fitness (ln)” value is -1.54 ± 0.18 (30 °C) and -0.0824 ± 0.22 (37 °C).
With GUAAAGCAAUAUUACGAAUA, the “self-splicing fitness (ln)” value (30 °C) was -1.68 ± 0.093 and the “self-splicing fitness (ln)” value (37 °C) is -0.495 ± 0.15.
In the case of UGUAAGCAAUAUUACGGAAA, the “self-splicing fitness (ln)” value was -1.83 ± 0.17 (30 °C) and -1.67 ± 0.2 (37 °C).
Regarding AGAUAGCAAUAUUACGCGAA, the “self-splicing fitness (ln)” value (30 °C) is -3.1 ± 0.28 and the “self-splicing fitness (ln)” value (37 °C) was -0.447 ± 0.17.
On to CCGAAGCAAUAUUACGCAUG, for which the “self-splicing fitness (ln)” value by setting is: (30 °C) -1.84 ± 0.11; (37 °C) -0.892 ± 0.12.
As for GCUAAGCAAUAUUACGUUUA, the “self-splicing fitness (ln)” value by setting is: (30 °C) -2.9 ± 0.24; (37 °C) -1.69 ± 0.21.
With AUCAAGCAAUAUUACGUUAA, the “self-splicing fitness (ln)” value is -3.14 ± 0.11 (30 °C) and -1.87 ± 0.093 (37 °C).
In the case of AAUAAGCAAUAUUACGUACG, the “self-splicing fitness (ln)” value is, setting by setting: (30 °C) -0.966 ± 0.14; (37 °C) -0.239 ± 0.17.
On to UAGUAGCAAUAUUACGAAGU, for which the “self-splicing fitness (ln)” value is, setting by setting: (30 °C) -2.42 ± 0.24; (37 °C) -2.07 ± 0.33.
Turning to AAUAAGCAAUAUUACGCCCC, the “self-splicing fitness (ln)” value (30 °C) stood at 0.198 ± 0.2 and the “self-splicing fitness (ln)” value (37 °C) was -0.311 ± 0.24.
On to UAAAAGCAAUAUUACGGCGA, for which the “self-splicing fitness (ln)” value reads like this: (30 °C) -0.67 ± 0.11; (37 °C) 0.453 ± 0.13.
For the sequence CAUAAGCAAUAUUACGGCGA, the “self-splicing fitness (ln)” value was -1.96 ± 0.18 (30 °C) and -0.178 ± 0.15 (37 °C).
Regarding GCUCAGCAAUAUUACGCCUU, the “self-splicing fitness (ln)” value is, setting by setting: (30 °C) 0.0207 ± 0.11; (37 °C) 0.141 ± 0.14.
As to AUAAAGCAAUAUUACGCCUU, the “self-splicing fitness (ln)” value is -0.274 ± 0.094 (30 °C) and 0.0912 ± 0.12 (37 °C).
CGAAAGCAAUAUUACGGGAA: the “self-splicing fitness (ln)” value is -2.17 ± 0.4 (30 °C) and -2.08 ± 0.26 (37 °C).
Turning to GACGAGCAAUAUUACGUGCC, the “self-splicing fitness (ln)” value is -1.56 ± 0.14 (30 °C) and -1.97 ± 0.26 (37 °C).
On to UGAUAGCAAUAUUACGGUCA, for which the “self-splicing fitness (ln)” value reads like this: (30 °C) -0.441 ± 0.073; (37 °C) -0.29 ± 0.071.
Consider GGAGAGCAAUAUUACGGGGA, for which the “self-splicing fitness (ln)” value (30 °C) was -3.31 ± 0.49.
As to UAGCAGCAAUAUUACGGAGA, the “self-splicing fitness (ln)” value was -3.24 ± 0.33 (30 °C) and -2.18 ± 0.14 (37 °C).
In the same order, the values of ACGGAGCAAUAUUACGGAUG are -2.66 ± 0.31 and -1.17 ± 0.28.
Take UCGGAGCAAUAUUACGCUAA: where the note is “30 °C”, the “self-splicing fitness (ln)” value was -2.18 ± 0.35.
On to UAGUAGCAAUAUUACGAGAC, for which the “self-splicing fitness (ln)” value (37 °C) is -1.37 ± 0.39.
On to UGGCAGCAAUAUUACGGCAC, for which the “self-splicing fitness (ln)” value is -2.27 ± 0.25 (30 °C) and -1.17 ± 0.16 (37 °C).
As to AGCUAGCAAUAUUACGAAGA, the “self-splicing fitness (ln)” value is, setting by setting: (30 °C) -2.45 ± 0.24; (37 °C) -2.86 ± 0.18.
As to GUGAAGCAAUAUUACGCCGA, the “self-splicing fitness (ln)” value is, setting by setting: (30 °C) -0.95 ± 0.15; (37 °C) -0.474 ± 0.16.
For AAAUAGCAAUAUUACGCCCG, the “self-splicing fitness (ln)” value was -0.812 ± 0.19 (30 °C) and 0.00909 ± 0.26 (37 °C).
Take GAACAGCAAUAUUACGAAAG: the “self-splicing fitness (ln)” value (30 °C) is -3.62 ± 0.18 and the “self-splicing fitness (ln)” value (37 °C) is -1.58 ± 0.13.
The corresponding values for UGCAAGCAAUAUUACGCAGG are -4.36 ± 0.33 and -3.48 ± 0.37.
The corresponding values for CGGAAGCAAUAUUACGAGCC are -2.13 ± 0.23 and -0.454 ± 0.22.
Take GCUGAGCAAUAUUACGUGGA: the “self-splicing fitness (ln)” value was -2.09 ± 0.19 (30 °C) and -2.9 ± 0.31 (37 °C).
For CAUCAGCAAUAUUACGCUCA, the “self-splicing fitness (ln)” value runs as follows: (30 °C) -1.55 ± 0.18; (37 °C) -0.924 ± 0.16.
In the same order, the values of GCUGAGCAAUAUUACGUCUU are -1.91 ± 0.11 and -1.17 ± 0.15.
For the sequence UAGCAGCAAUAUUACGGUGA, the “self-splicing fitness (ln)” value is, setting by setting: (30 °C) -0.912 ± 0.08; (37 °C) -0.0764 ± 0.096.
As for GCAGAGCAAUAUUACGUCAU, the “self-splicing fitness (ln)” value (37 °C) was -1.4 ± 0.42.
With UGAUAGCAAUAUUACGGUUU, the “self-splicing fitness (ln)” value (30 °C) was -2.91 ± 0.097 and the “self-splicing fitness (ln)” value (37 °C) is -1.38 ± 0.11.

These data come from the supplement of paper PMC7877785.
